Substitutions are numbered along the chain they refer to. Names may count otherwise.
B1: S167D-catalase (phospho-mimic mutant of human catalase) (enzyme, UniProt P04040 1-527, looked up)
chain: MADSRDPASDQMQHWKEQRAAQKADVLTTGAGNPVGDKLNVITVGPRGPLLVQDVVFTDEMAHFDRERIPERVVHAKGAGAFGYFEVTHDITKYSKAKVFEHIGKKTPIAVRFSTVAGESGSADTVRDPRGFAVKFYTEDGNWDLVGNNTPIFFIRDPILFPSFIHDQKRNPQTHLKDPDMVWDFWSLRPESLHQVSFLFSDRGIPDGHRHMNGYGSHTFKLVNANGEAVYCKFHYKTDQGIKNLSVEDAARLSQEDPDYGIRDLFNAIATGKYPSWTFYIQVMTFNQAETFPFNPFDLTKVWPHKDYPLIPVGKLVLNRNPVNYFAEVEQIAFDPSNMPPGIEASPDKMLQGRLFAYPDTHRHRLGPNYLHIPVNCPYRARVANYQRDGPMCMQDNQGGAPNYYPNSFGAPEQQPSALEHSIQYSGEVRRFNTANDDNVTQVRAFYVNVLNEEQRKRLCENIAGHLKDAQIFIQKKAVKNFTEVHPDYGSHIQALLDKYNAEKPKNAIHTFVQSGSHLAAREKANL
B2: recombinant human wildtype catalase (enzyme, UniProt P04040 1-527, looked up)
chain: B1 chain with D167S
B3: recombinant human wildtype catalase incubated with PKCδ (phosphorylated at S167) (enzyme, UniProt P04040 1-527, looked up)
chain: B1 chain with D167S
modifications: phosphoserine at 167

Legend:
[1] = target: the molecule itself; assay: cell-based or functional assay
SEC [2] = target: the molecule itself; assay: SEC
SEC [3] = target: the molecule itself; assay: SEC; remark: listed apart in the source

Protein	rate of H2O2 decomposition by the purified protein, against wildtype catalase [1] [fold]	Dimer (%) (SEC [2])	Tetramer (%) (SEC [2])	stoichiometry N (SEC [3])
B1	2	9.2	44.4	4
B2	–	53	4.78	2
B3	–	6.23	51.8	4

From article PMC3945115 (Free radical biology & medicine, 2013)
